Experiment [1] addresses biotin-collagelin. The experiment in a line: SPR; biotin-collagelin on a streptavidin sensorchip, IgG 1.25 to 10 µg/mL.
The target in experiment [2] is biotin-collagelin. Briefly: SPR. Background: Surface plasmon resonance follows binding to a sensor surface in real time, without labels.
The target of experiment [3] is biotin-collagelin. Briefly: SPR; collagen injected on biotin-collagelin on a streptavidin sensorchip.

As a reminder, the Kd is a measure of binding affinity in units of concentration. A high value points to lower affinity.

Sequence of biotin-collagelin (peptide, as listed by the source): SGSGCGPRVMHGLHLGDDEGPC

As for “anti-human platelet GPVI 9O12.2 IgG (antibody)”, the dissociation constant Kd with biotin-collagelin [1] was determined as 1 µM.

The substance murine laminin (Gibco) had a Kd in the experiment with biotin-collagelin [2] of 18.3 µM.

“type I equine fibrillar collagen (Collagen Horm, Nycomed)” gave an RU bound in the experiment with biotin-collagelin [3] of 10 RU.

The values above are taken from US20100303724A1.
